Laboratory results published in patent US20130317087A1 (UNIVERSITY OF ROCHESTER, published 2013).

Legend:
[1] = target: the molecule itself; experiment: sedimentation velocity analytical ultracentrifugation, rapid monomer-dimer equilibrium model
Experimental: After purifying GST-hSTAU1⁵⁵(367-476) from E. coli and removing the GST tag, SSM-‘RBD’5 migrated during gel filtration at the size of a dimer Sedimentation velocity determinations using analytical ultracentrifugation confirmed that the average weight distribution of SSM-‘RBD’5 shifted to lower Svedberg values at lower concentrations (FIG. 10C).
hSTAU1-SSM-‘RBD’5 was purified as above, except the final GF buffer contained 2.97 mM DTT, and submitted to the University of Connecticut Analytical Ultracentrifugation Facility for sedimentation velocity analysis. […] Measuring refractive index rather than absorbance was especially useful considering the low extinction coefficient at A₂₈₀ that typifies SSM-‘RBD’5; which lacks tryptophan residues. […] Data were analyzed using: 1) DcDt+, version 2.0.9 (Philo, 2000; 2006), to determine the sedimentation coefficient distribution that was independent of a model, 2) Sedfit, version 10.09beta (Schuck, 2000), to produce a model-based continuous sedimentation coefficient distribution using the Lamm equation or c(s) to identify the number of species (e.g., monomers vs dimers) in solution, and 3) Sedanal, version 5.60 to combine datasets from the three highest of four concentrations tested, perform a global analysis, and determine the protein association model using the Lamm equation.

hSTAU1^55-HA3 [2] = target: T1, hSTAU1^55-HA3 (human, UniProt O95793-2 1-496); experiment: anti-HA co-IP (reverse direction) from HEK293T lysates, quantitated western blot
T1 construct: also called STAU1-HA3
T1 sequence (looked up): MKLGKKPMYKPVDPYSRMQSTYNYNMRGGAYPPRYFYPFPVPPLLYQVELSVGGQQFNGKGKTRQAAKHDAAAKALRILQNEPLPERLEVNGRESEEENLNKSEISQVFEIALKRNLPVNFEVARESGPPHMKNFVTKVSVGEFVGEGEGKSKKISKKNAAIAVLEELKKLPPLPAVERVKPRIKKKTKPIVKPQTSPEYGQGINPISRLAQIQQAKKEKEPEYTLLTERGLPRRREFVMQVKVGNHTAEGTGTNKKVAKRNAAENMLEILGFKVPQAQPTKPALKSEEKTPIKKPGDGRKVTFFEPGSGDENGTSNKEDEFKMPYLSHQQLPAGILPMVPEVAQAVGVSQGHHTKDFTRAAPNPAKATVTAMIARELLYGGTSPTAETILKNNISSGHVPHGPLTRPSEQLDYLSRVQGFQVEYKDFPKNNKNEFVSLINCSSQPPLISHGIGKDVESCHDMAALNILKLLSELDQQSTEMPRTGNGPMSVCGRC
Text: To test this idea, HEK293T cells were transiently transfected with hSTAU1⁵⁵-HA₃ and one of three siRNA-resistant (R) plasmids that produce either hSTAU1^{55(R)}-FLAG, hSTAU1^{55(R)}Δ(C-Term)-FLAG or hSTAU1^{55(R)}Δ(SSM-‘RBD’5)-FLAG, each of which was expressed at the level of cellular hSTAU 1. hSTAU1^{55(R)}Δ(C-Term)-FLAG lacks all amino acids C-terminal to ‘RBD’5 Δ1. […]
(§1) The level of hSTAU1⁵⁵-HA₃ or cellular hUPF1 that co-immunoprecipitated with hSTAU1^{55(R)}Δ(SSM-‘RBD’5)—FLAG was only ˜10% the level of, respectively, hSTAU1⁵⁵-HA₃ or cellular hUPF1 that co-immunoprecipitated with hSTAU1^{55(R)}-FLAG or hSTAU1^{55(R)}Δ(C-Term)-FLAG.

hSTAU1^55-HA3 [3] = target: T1, hSTAU1^55-HA3; experiment: anti-FLAG co-IP from HEK293T lysates with RNase A, quantitated western blot
Text: (§2) To test this idea, HEK293T cells were transiently transfected with hSTAU1⁵⁵-HA₃ and one of three siRNA-resistant (R) plasmids that produce either hSTAU1^{55(R)}-FLAG, hSTAU1^{55(R)}Δ(C-Term)-FLAG or hSTAU1^{55(R)}Δ(SSM-‘RBD’5)-FLAG, each of which was expressed at the level of cellular hSTAU 1. hSTAU1^{55(R)}Δ(C-Term)-FLAG lacks all amino acids C-terminal to ‘RBD’5 Δ1. Cell lysates were immunoprecipitated in the presence of RNaseA using anti-FLAG or, as a negative control, mIgG.
as §1

cellular hUPF1 = target: T2, cellular hUPF1 (human, UniProt Q92900-2 1-1118, limits assumed); experiment: as above
T2 construct: Endogenous protein detected by western blotting
T2 sequence (looked up): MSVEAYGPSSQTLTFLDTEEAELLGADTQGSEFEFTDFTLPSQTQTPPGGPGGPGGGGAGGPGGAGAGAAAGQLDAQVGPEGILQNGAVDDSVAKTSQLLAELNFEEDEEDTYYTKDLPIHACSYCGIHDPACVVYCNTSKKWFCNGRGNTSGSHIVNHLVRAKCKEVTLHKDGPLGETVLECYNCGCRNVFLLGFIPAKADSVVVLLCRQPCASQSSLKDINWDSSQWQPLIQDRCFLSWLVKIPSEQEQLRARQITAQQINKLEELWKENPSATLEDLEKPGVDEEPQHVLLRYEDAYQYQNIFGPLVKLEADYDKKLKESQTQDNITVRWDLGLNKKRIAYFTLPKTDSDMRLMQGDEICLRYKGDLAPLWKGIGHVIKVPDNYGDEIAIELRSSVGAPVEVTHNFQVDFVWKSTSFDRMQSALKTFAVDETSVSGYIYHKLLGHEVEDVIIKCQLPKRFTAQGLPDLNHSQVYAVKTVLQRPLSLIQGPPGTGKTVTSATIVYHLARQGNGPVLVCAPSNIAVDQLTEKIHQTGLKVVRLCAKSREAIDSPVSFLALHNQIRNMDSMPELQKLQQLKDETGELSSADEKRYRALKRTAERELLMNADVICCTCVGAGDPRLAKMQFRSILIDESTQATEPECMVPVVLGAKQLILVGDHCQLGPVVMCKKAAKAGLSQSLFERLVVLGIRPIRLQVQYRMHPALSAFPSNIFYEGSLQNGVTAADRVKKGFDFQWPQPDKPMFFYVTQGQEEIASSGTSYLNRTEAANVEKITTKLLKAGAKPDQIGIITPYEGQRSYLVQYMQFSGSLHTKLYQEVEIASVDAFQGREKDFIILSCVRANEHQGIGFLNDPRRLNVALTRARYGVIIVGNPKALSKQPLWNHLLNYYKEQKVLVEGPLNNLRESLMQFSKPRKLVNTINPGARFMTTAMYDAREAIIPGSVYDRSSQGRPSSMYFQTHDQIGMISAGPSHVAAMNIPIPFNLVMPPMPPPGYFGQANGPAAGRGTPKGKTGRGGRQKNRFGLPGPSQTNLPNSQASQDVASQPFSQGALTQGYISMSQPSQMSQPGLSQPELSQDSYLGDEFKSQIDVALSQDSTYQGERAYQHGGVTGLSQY
Text: as §2, §1

hSTAU1^55-HA3 [4] = target: T1, hSTAU1^55-HA3; experiment: anti-FLAG and anti-HA co-IP from HEK293T lysates with RNase A
Text: as §2

[5] = target: the molecule itself; experiment: gel filtration of the E. coli-made protein
Experimental: Since hSTAU1^{55(R)}Δ(SSM-‘RBD’5)-FLAG still had residual dimerization activity (10% that of hSTAU1^{55(R)}-FLAG), and in view of reports that hSTAU1 ‘RBD’2 amino acids 37-79 can interact with full-length hSTAU1, the ability of E. coli-produced ‘RBD’2-RBD3 amino acids 43-173 to dimerize was assayed.
Size standards were prepared by dissolving dried proteins in 2 ml of GF buffer containing 2.97 mM DTT. Proteins consisted of 3.8 mg of conalbumin (75 kDa), 2.3 mg carbonic anhydrase (29 kDa) and 6.7 mg aprotinin(6.5 kDa), each from the Low Molecular Weight Gel Filtration Calibration Kit (GE Healthcare; #28-4038-41), and 6 mg of lysozyme (14.3 kDa) (Sigma; #L6876-10G). The dissolved solution (1 ml, determined using a 1 ml loop) was loaded onto a 120 ml HiLoad™Superdex™ 200 16/60 prep-grade column (GE Healthcare) and separated at a 1 ml/min flow rate using the BioLogicDuoFlow™ FPLC system. For size estimations, gel-filtration of SSM-‘RBD’5 (WT), SSM-‘RBD’5 (E424H, D427V) and ‘RBD’2-RBD3 was performed as described for the size standards. SSM-‘RBD’5 (WT) was loaded at 8 mg/ml, SSM-‘RBD’5 (E424H, D427V) was loaded, and ‘RBD’2-RBD3 was loaded at 6 mg/ml.

B1: hSTAU1 SSM-‘RBD’5 (hSTAU1^55 amino acids 367-476, GST tag removed) (other)
chain: GPLGSKATVTAMIARELLYGGTSPTAETILKNNISSGHVPHGPLTRPSEQLDYLSRVQGFQVEYKDFPKNNKNEFVSLINCSSQPPLISHGIGKDVESCHDMAALNILKLLSELD
notes: Made in E. coli as a GST fusion from pGEX-6p-1, GST cleaved off; In monomer-dimer equilibrium; also called SSM-‘RBD’5(WT); hSTAU1^55(367-476)
- Kd [1]: 79 µM

B2: hSTAU1^55(R)Δ(SSM-‘RBD’5)-FLAG (other, human, UniProt O95793-2 1-363, looked up, not shown: small tags and cut ends)
chain: MKLGKKPMYKPVDPYSRMQSTYNYNMRGGAYPPRYFYPFPVPPLLYQVELSVGGQQFNGKGKTRQAAKHDAAAKALRILQNEPLPERLEVNGRESEEENLNKSEISQVFEIALKRNLPVNFEVARESGPPHMKNFVTKVSVGEFVGEGEGKSKKISKKNAAIAVLEELKKLPPLPAVERVKPRIKKKTKPIVKPQTSPEYGQGINPISRLAQIQQAKKEKEPEYTLLTERGLPRRREFVMQVKVGNHTAEGTGTNKKVAKRNAAENMLEILGFKVPQAQPTKPALKSEEKTPIKKPGDGRKVTFFEPGSGDENGTSNKEDEFKMPYLSHQQLPAGILPMVPEVAQAVGVSQGHHTKDFTRAAP
notes: domain: Δ(SSM-‘RBD’5); End at residue 363 is read from the primer; also called product of pcI-neo-hSTAU1^55(R)Δ(SSM-‘RBD’5)-FLAG
- level co-immunoprecipitated with hSTAU1^55-HA relative to hSTAU1^55(R)-FLAG or hSTAU1^55(R)Δ(C-Term)-FLAG (hSTAU1^55-HA3 [2]): ~10%
- level of co-immunoprecipitated hSTAU1^55-HA3 relative to that with hSTAU1^55(R)-FLAG or hSTAU1^55(R)Δ(C-Term)-FLAG (hSTAU1^55-HA3 [3]): ~10%
- level of co-immunoprecipitated cellular hUPF1 relative to that with hSTAU1^55(R)-FLAG or hSTAU1^55(R)Δ(C-Term)-FLAG (cellular hUPF1): ~10%

B3: hSTAU1^55(R)-FLAG (other, human, UniProt O95793-2 1-496, looked up, not shown: small tags and cut ends)
chain: T1 sequence (looked up)
notes: Expressed in HEK293T cells at the level of cellular hSTAU1; also called product of pcI-neo-hSTAU1^55(R)-FLAG
- binding result (hSTAU1^55-HA3 [4]): binds

B4: hSTAU1^55(R)Δ(C-Term)-FLAG (other, human, UniProt O95793-2 1-422, looked up, not shown: small tags and cut ends)
chain: MKLGKKPMYKPVDPYSRMQSTYNYNMRGGAYPPRYFYPFPVPPLLYQVELSVGGQQFNGKGKTRQAAKHDAAAKALRILQNEPLPERLEVNGRESEEENLNKSEISQVFEIALKRNLPVNFEVARESGPPHMKNFVTKVSVGEFVGEGEGKSKKISKKNAAIAVLEELKKLPPLPAVERVKPRIKKKTKPIVKPQTSPEYGQGINPISRLAQIQQAKKEKEPEYTLLTERGLPRRREFVMQVKVGNHTAEGTGTNKKVAKRNAAENMLEILGFKVPQAQPTKPALKSEEKTPIKKPGDGRKVTFFEPGSGDENGTSNKEDEFKMPYLSHQQLPAGILPMVPEVAQAVGVSQGHHTKDFTRAAPNPAKATVTAMIARELLYGGTSPTAETILKNNISSGHVPHGPLTRPSEQLDYLSRVQGFQ
notes: domain: lacks all amino acids C-terminal to ‘RBD’5 α1; End at residue 422 is read from the primer; also called product of pcI-neo-hSTAU1^55(R)Δ(C-Term)-FLAG
- binding result (hSTAU1^55-HA3 [4]): binds

B5: hSTAU1 ‘RBD’2-RBD3 (amino acids 43-173) (other, human, UniProt O95793-2 43-173, looked up)
chain: PLLYQVELSVGGQQFNGKGKTRQAAKHDAAAKALRILQNEPLPERLEVNGRESEEENLNKSEISQVFEIALKRNLPVNFEVARESGPPHMKNFVTKVSVGEFVGEGEGKSKKISKKNAAIAVLEELKKLPP
notes: range 43-173; Made in E. coli from pGEX-6p-1 and cut with PreScission Protease; also called product of pGEX-6p-1-hSTAU1-‘RBD’2-RBD3
- binding result [5]: binds
